Measured values: the domain aggregation screens of Martell et al. (2025)

Experiment: soluble fraction after stress (log2 fold change); higher = more stays soluble; pooled small domains, quantitative proteomics
Conditions: stress: 50 degC
In short: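 Each library was heated to 50°C as a stress step. The libraries, made up of small protein domains, were pooled and analysed at high throughput by quantitative proteomics. The reported value is the base-two logarithm of the fold change in each protein's soluble amount after stress, taken as a measure of aggregation propensity. The higher the value, the more protein stays in solution.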

Sequence	soluble fraction (log2)
HMFSVVDKITLQEELKKLSKKEQLLIQLRYYDELNQEEIAKIFHVSQVQISRMEKKIIEKLKKQF	-3.58
HMSDTSELESIIAQIIEDNPKSIEDIGAGNQKAYGFLTGQVMKATKGQANPQVANKIIRELVARKLE	0.575
HMSTYTETETAYLKAYSAAGVDGKISDSERGILNMTAEALGITVERTTELEAMFNLTVEEEA	-0.118
HMSFTSQSVLIEIVRGTTQLTPLAAAVGANKREVVLAVHRLKQRGLVVSAGLGQYAATEAGRAFLTAGREV	-2.76
HMQSVKTQPLRDWLLAHFDKPYPDDEDKVRLAEASGMTRAQVGNWFINARVRTWRPMVLDLGEEIERESV	-0.649
HMRAAEPTTDAQRDRRRRIVLTAMTMLQERGYDEIQMRDVAQQAGVALGTLYRYFPSKEQLFAHVLVE	-0.599
HMNMAVELEDGTQIFVFSEDGEFAGKRAVIADEEGRPTEENAPAGTHTLRDGRSIVVGEGGVIESVVET	0.0438
HMLPQYELIKQYLRHQIETGEWPIGYRTPSEPKLAEQFSVSRMTARRALQELADQGLLSRTAGSGTFVAKP	-0.483
HMKKPKTVLSEEQKEFIINQAQDGVSAYDIARILFPSVNVTNLSKEVIDVAEFIRDTDIKLLADSE	0.0694
HMQDLTAQQQAILSFLKEHPKATRKEISENIPNITEDNIRYNLSQLQELGFVKSMGDSFIRIAI	0.0658
HMEPDEQAVKALIAEIDKLSKEKLTLKHEKKLKELREIYDDFTEEEKKLVTNYDILVKMEKRMEVLKKQEG	0.111
HMAHYPGKVNNELVEFIRSEQRKTPHMTLTGLNRKLQRTYDLTLSESTVRKLVEAETILPLAREPD	-0.0739
HMEGAEDMNRALALAFLRDNSRSTVAQLAEHLGSSKRSAERLVAQLKDEGVLERQGSPRAGLWIVHI	-0.0818
HMFFMTMGEKIQLLRKKQNWSQETLAEKLSVSRQAVSLWERDESQPELDKLLKLAKIFSVTTDYLIDDSVT	-0.386
HMPDIFDRGTAHITDAASGVAITFTRTFRIPPEVTMTHKGGTVVAIARLVGSITTGGFTAVLENT	-0.264
HMSDDSTIVELLASSLRRDIAFGTLLPDQKLKLNELRTRYGGSIHSMRETLRILSAEGLVEATAQRGFRVT	-0.0813
HMVPHQPRVWTNTAGKTITAAFVRFNAAGRKVSLKLEKGRQVELPLASLSGNDVDWIKEHVPEAMSNQE	-0.142
HMSSLTDNFVKALSYYLALSGKSKKEVADGIGIPPTTFSSWSNGKHLPDMDRLQNLATYLGAPVSEFFDFT	-0.0831
HMESEAKLGVAFNGKTRFDMTFPADADNKTIEEAVLADERAQKYLEGFQVAKVIIVPKRMVNIVLK	0.24
HMTTVSINTTGIITASTIRASSALYPPLYTTVQRDAGTFSAGAIIFNSTTSKLEFYDGTTWQSLPG	-0.106
HMYHNKFADLAGFIAFNEKNEEIFTFGKYKGQNVKEVFQRDIGYYGWLQNADFPLYTKKVFTAIQLRSR	-2.16
HMSIGPQMAGRRVLSGDLIARLEAFEGTVVLGRGVAREDALLIATQAGHVRWEPASRRLWVDSTA	-0.458
HMEGIWAVFYDGKPINLKSSSLVANYPGPKYKKVSFSNPGHAENLAKKLNAQHNTDKFGVYLLKSGDKFS	-0.00158
HMGGEAEVLQSIDEGREVEVRSVAADGSAEVIYRGARWRARAAVGSLAAGRWTIGRVDGTELVLEK	-0.0207
HMTPPAQQPHEGLPTDETATDAKTLVQKSRWWLEEEQRQREAGNTAYAERIRLALIQLLYRAERA	0.0784

Sequence	soluble fraction (log2)
HMEIPRYRLIGADGGRMVDLGEGQGAIPPVDVKRGMIDMPGLGKGYYTADGKSAVITNADGSKTRVL	-0.034
HMRGLIEPLSQRELEVLMLMARGQSNAHIADQLNISENTIKWHGRNIFGKLGVSNRTEAVITSQEMGMLAT	-0.621
HMFLPFFDNLRKAGVPVSLREFLGFLEGMKAGLATYDIDAFYFLARTTMVKDERNLDKFDRAFSATFKG	-0.563
HMAQISDESALYDLVKSVLDANPQSIADYKAGRDRALGFLMGQAMKLSKGKANPPVINKILKEMLDK	0.0791
HMDAMLSEQLREKRGELLIEVDAIAGNALRWATLSAEQQDAWAVYRQALLDVPQQAGFPNDVVWPINPN	-0.352
HMPIDNTLLSRITSLGVSTTEAEKLISKHGEEALKANLEVVEERLSKPNLPLLDSPAAYLKTALKNG	0.318
HMGVPVTAPMPGKVLKVTVSVGAAVKNGDLVLVLEAMKMENEIFATANGVVKEIRSREGDTVNSGDVMMVI	-0.533
HMKMDGESQRLLSLIKEQGGSLPIGDKSSPEAIYRLTQMSKKTFKMALGSLYKAKQVVLSPTEVRL	-0.69
HMGVTDSSYNVLRRQILEMLSVQQRTPADLARLIEADKEEIAAVIRFLLDKGEIQMEDGMLQTK	0.0683
HMIYSKSDLELFGIKKIDVMEENILMLILSEYELDQTPKNILIDEAVRLSKKFGADNAYKFVNATLDTLL	-0.944
HMSDDLLTGLDAYSRGDWTTATASFERVLTTADPNNRTEALYWLVMSETSAQNYQRALNYANTFL	-0.688
HMDEFQLTPREQEILGLLVKGYTYKRIASELNLSYATVNRHVSNVYVKLRVHSVNEAVALAVRKGL	-0.997
HMLSPPWYEYHRKVQAMFGRDPEVHIKDLDDLGDGKFSYMILVYNKEKAEAIKAILPQKVEMGNVTIETAI	0.361
HMENYTYKYATSANVNIREEPNTDSTILGKTLLNTEFQVVEDVDGWSKITTEAGYAYIKSEYLSDTE	-0.188
HMLQLDATDRALIVATQGGLPLVPRPYQVVGEQLGISGEEVVARLRALLDAGVIRRIGAVPN	-0.283
HMNTDALIGKTGYVTEIVGERHGRIQFSGGEWSARTEGVSIPVGAEVRVDRIDGATAVVSAV	0.115
HMSASIAEGTVIMLENTTNIRSGMSEDSSKVGTAYAGEKVTVVMSYAEGWTKVKWNGETGYIKTALLQL	-0.212
HMRLYTQDVAVLNRDVIQGEVITSDMVTTVNVHKRTVPTGALNLSEIPGNVAKFNIPASIPITASMVTK	0.0171
HMVKLDDLTGQDKATAEATITNSGLKYSEQQEFSDEVEAGKVIRTDPGAGTSSLKAGDTVTVYVSRGPEN	-0.0778
HMKSKYLIKIEGDFDEKDLYKYLINVSIVNHTKNNGFTEVEFYNDNYSLQQNFLKSMLNDGIIITEFKKVE	-0.115
HMKSYQKITPATEGNYLTTYREGDDIKTYEGVKAMYTPADFDASSVREITPEEHQSYQKAKEQALQEETEQ	-0.225
HMIKEGDLVFIWNPKKGDSFLIKVQPGQSQGTHFGQIKHSEIMEHNYGEGIRTPKGQVYYLLRPTLGEFTR	-1.14
HMTSDYEPSEKDEKAVIGIAFLRNTDVYDVDIDKAEAIKALKANNDIYQKFVKFFPFVKLPSLYDDFQ	-0.00582
HMALSGTVQNFAGGIMILIFRPFKTGDYIEALGYFGKVSEVNIVSTKLRTFDNKTIILPNGALSNGNIQNY	-0.889
HMTDFESYTVRVTATNLNIRKGAGTNFHSAGYIKPGVYTIVEEADGKGATRWGKLKSGMGWISLDYAKK	-0.763

Sequence	soluble fraction (log2)
HMQTLQNNLKQIRSRVGLTQGELASRAGISRQAYSTLESGNANPSTEVSLRLAEALNERIESLFFLANQ	-0.275
HMRKDRKVLMERGRHIFNDLLEKEGIVATNQLMTKLLASHHLRNRDELYLMLANDDISLSSKEIKDLS	0.0203
HMQEDKVRKLTEMGFAEDQAREALRKHDWDETMALNSL	0.199
HMESWNRARILEKIRELHAQGVALNNASMRRLGYRGMMEAAARPQNFGSWEAAVRAAGIDYDRV	-0.00832
HMVNKQERTYTILRDRIHSGSFAPLERLNIDALARELGVSPIPVREALRRLEAEGWVRFTPNVGAVVSP	-0.165
HMNTEEVGSYLKKLRLEHSFTQKELAGKLYITHQAVSNWEKGKALPDIGILSQLGDIYGISIDNLLLK	-1.79
HMVMNKQEFLKILRDTLQSQLSSRETENHVEYYRTYIEEQMREGKTEIEILDVLGDPRLIARTILET	-0.0725
HMATTPEETILEYINKNNRISKQEIADLMGITRDGVSYHIKKLRKNGLLEWIGSPSNGHWEIIE	0.274
HMGNYRVIKWGMQGDDVKLMQQMLINRGYVLSATGKYASRTLKAIMAFQEANGLKADGIVGKRTWNKLL	-2.66
HMPAVGGVVKGAVVSVGRNEVRLDIGGLAIGIIRGPELDKHVDLRIGDEVEATVITLDNEFGELELSL	-0.72
HMSRLLTTRQREVFEVATREGFWDVPRRINLSELAKVLGVAKSTLSSQLQRIESAVFHAFTDEIRRQS	-2.16
HMGEVQALIPGLVSKLFVVEGESVKIGQKLIILEAMKMENEIASPINGTIKKIYIKSGDKIDKGSIIMEIT	-0.336
HMQIYLTPEQFKIIDFMEQMGKITVKDVMDILNIPKRTAQLHLQKLKTLKMIAQTGKGPSSAYLL	-0.959
HMRNEFEAHSDGTRIQLNDRSKATFSVYDVQGRLIHSFQDFSGSSFNIEPKNQLLIITRETAEGVSVKKLV	0.0942
HMLVGGPDTPSKVTVSFDLGSRQAVDELTERAGAAGGRIGDIDDYPFMYQRQFDDPDGYHYSPFWMKP	-0.149
HMLLTLPEDIITMVRQGTLSAGHARVLAGLESDEMKMTLARQTITNEWSVRQLENAVALMRKS	-0.0766
HMKHKGILTTWNDDRGFGFITPKEGKEPVFVHISAFARGQGRPVLNASLTYRLVRDDQQRPRAEAVRL	-1.15
HMVNHEERKRLIAEATWRTISHVGIEQASVRTIAKEAGLSLGALRYYFTTQEELLRFSMQLVQERV	-0.0983
HMSQDTLIENGKVFLIHKVVAGQTLYGLSKAYNITIEDIIKYNPQAENGIKIGEDIKIFLKEE	-0.432
HMLAGKTYEVQTESGGKWTLVASYNVKSQAIQQAQALLESHKYSGVKVIAESDRKGEEVIFNEQSEVT	-0.0442
HMENTIESLLKAKGFNDIIVTVSDKQVDVVVSDKEIADNKRAQIEDVIKRKTGLEASAITITPA	0.0688
HMIDNFFTIRFNYSKINEVIRLLKEFNGEIFNKNYDKNEYIIEFSIPKKDAALLISKLKNITGLTIEQ	-0.00473
HMRDIGKNIRYYREKKGYSQEQLAQLLFVTRQTVSNYETSRSRPDVETLVKLAGLLDIDVTDLIYGPR	-0.651
HMAELTTVQAADILHVSRPFLIKLLDEGQIPYHRVGKHRRIRMEDVMNYKRAIDQQREAVLDQLVAEA	-0.0408
HMNAKNPRALAIQYVFKMQMGNFLHAKTDNQQQEQERIMTLFNEENKNTILPRWGKELLSYINRN	-0.695
